The results in this text go back to PMC12102759 (2025).

The chains are these.
B1: CBL peptide 538-553 (E3 ubiquitin-protein ligase CBL), 16-mer library wild type / YES SH3 (YES1 SH3 domain, residues 90-152) (parent complex)
chain 1: TLRDLPPPPPPDRPYS
chain 2: not shown

This test covers variants of B1. The experiment in a line: proteomic peptide phage display deep mutational scan (ProP-PD DMS): M13 P8 16-mer library selected against immobilised GST-tagged bait for four days (rounds), NGS of the eluted pools per day and pseudo-replica; bait immobilised on MaxiSorp plates (10 µg), library pre-cleared on GST, 2 h binding at 4 °C, five washes; one round per day, days 1-4; value from days 2 and 3.
For the variant chain 1 R3L, the screen value is 7.89e-05 average fractional NGS count over selection days 2 and 3 (reads of this peptide / all reads for the bait, averaged over ….

chain 1 R3G: the screen value was 0.00132 average fractional NGS count over selection days 2 and 3 (reads of this peptide / all reads for the bait, averaged over ….

Turning to chain 1 R3A, the screen value was 0.00047 average fractional NGS count over selection days 2 and 3 (reads of this peptide / all reads for the bait, averaged over ….

Take chain 1 R3H: the screen value was 0.000385 average fractional NGS count over selection days 2 and 3 (reads of this peptide / all reads for the bait, averaged over ….

In the case of chain 1 R3V, the screen value was 0.000502 average fractional NGS count over selection days 2 and 3 (reads of this peptide / all reads for the bait, averaged over ….

Take chain 1 R3S: the screen value is 0.000276 average fractional NGS count over selection days 2 and 3 (reads of this peptide / all reads for the bait, averaged over ….

In the case of chain 1 R3M, the screen value was 0.000204 average fractional NGS count over selection days 2 and 3 (reads of this peptide / all reads for the bait, averaged over ….

For the variant chain 1 R3W, the screen value is 0.00019 average fractional NGS count over selection days 2 and 3 (reads of this peptide / all reads for the bait, averaged over ….

Take chain 1 R3K: the screen value was 0.000536 average fractional NGS count over selection days 2 and 3 (reads of this peptide / all reads for the bait, averaged over ….

For the variant chain 1 R3E, the screen value is 0.000121 average fractional NGS count over selection days 2 and 3 (reads of this peptide / all reads for the bait, averaged over ….

Take chain 1 R3P: the screen value is 8.03e-05 average fractional NGS count over selection days 2 and 3 (reads of this peptide / all reads for the bait, averaged over ….

For chain 1 R3D, the screen value was 8.49e-05 average fractional NGS count over selection days 2 and 3 (reads of this peptide / all reads for the bait, averaged over ….

For chain 1 R3N, the screen value is 0.000239 average fractional NGS count over selection days 2 and 3 (reads of this peptide / all reads for the bait, averaged over ….

For the variant chain 1 P6S, the screen value is 0.000101 average fractional NGS count over selection days 2 and 3 (reads of this peptide / all reads for the bait, averaged over ….

With chain 1 P6H, the screen value was 0.000126 average fractional NGS count over selection days 2 and 3 (reads of this peptide / all reads for the bait, averaged over ….

On to chain 1 P7Q, for which the screen value is 0.000151 average fractional NGS count over selection days 2 and 3 (reads of this peptide / all reads for the bait, averaged over ….

With chain 1 P7H, the screen value is 7.35e-05 average fractional NGS count over selection days 2 and 3 (reads of this peptide / all reads for the bait, averaged over ….

Turning to chain 1 P7T, the screen value was 0.000231 average fractional NGS count over selection days 2 and 3 (reads of this peptide / all reads for the bait, averaged over ….

Take chain 1 P7L: the screen value was 0.000549 average fractional NGS count over selection days 2 and 3 (reads of this peptide / all reads for the bait, averaged over ….

As for chain 1 P7K, the screen value was 0.000378 average fractional NGS count over selection days 2 and 3 (reads of this peptide / all reads for the bait, averaged over ….

chain 1 P7N: the screen value is 0.000153 average fractional NGS count over selection days 2 and 3 (reads of this peptide / all reads for the bait, averaged over ….

Regarding chain 1 P7I, the screen value is 0.00214 average fractional NGS count over selection days 2 and 3 (reads of this peptide / all reads for the bait, averaged over ….

As for chain 1 P7E, the screen value is 0.00022 average fractional NGS count over selection days 2 and 3 (reads of this peptide / all reads for the bait, averaged over ….

For the variant chain 1 P7G, the screen value is 0.000231 average fractional NGS count over selection days 2 and 3 (reads of this peptide / all reads for the bait, averaged over ….

Turning to chain 1 P7F, the screen value is 0.000149 average fractional NGS count over selection days 2 and 3 (reads of this peptide / all reads for the bait, averaged over ….

For the variant chain 1 P7S, the screen value is 0.00158 average fractional NGS count over selection days 2 and 3 (reads of this peptide / all reads for the bait, averaged over ….

For the variant chain 1 P7V, the screen value was 0.00339 average fractional NGS count over selection days 2 and 3 (reads of this peptide / all reads for the bait, averaged over ….

Consider chain 1 P7A, for which the screen value was 0.00162 average fractional NGS count over selection days 2 and 3 (reads of this peptide / all reads for the bait, averaged over ….

Turning to chain 1 D4V, the screen value is 0.00269 average fractional NGS count over selection days 2 and 3 (reads of this peptide / all reads for the bait, averaged over ….

Consider chain 1 D4I, for which the screen value is 0.00256 average fractional NGS count over selection days 2 and 3 (reads of this peptide / all reads for the bait, averaged over ….

Take chain 1 D4F: the screen value is 5.77e-05 average fractional NGS count over selection days 2 and 3 (reads of this peptide / all reads for the bait, averaged over ….

For the variant chain 1 D4A, the screen value was 0.000274 average fractional NGS count over selection days 2 and 3 (reads of this peptide / all reads for the bait, averaged over ….

For chain 1 D4M, the screen value was 0.0013 average fractional NGS count over selection days 2 and 3 (reads of this peptide / all reads for the bait, averaged over ….

On to chain 1 D4L, for which the screen value is 0.000198 average fractional NGS count over selection days 2 and 3 (reads of this peptide / all reads for the bait, averaged over ….

With chain 1 D4Y, the screen value was 0.00195 average fractional NGS count over selection days 2 and 3 (reads of this peptide / all reads for the bait, averaged over ….

Consider chain 1 D4P, for which the screen value is 0.00043 average fractional NGS count over selection days 2 and 3 (reads of this peptide / all reads for the bait, averaged over ….

Consider chain 1 D4K, for which the screen value was 0.000375 average fractional NGS count over selection days 2 and 3 (reads of this peptide / all reads for the bait, averaged over ….

In the case of chain 1 P11K, the screen value was 0.00117 average fractional NGS count over selection days 2 and 3 (reads of this peptide / all reads for the bait, averaged over ….

For the variant chain 1 P11D, the screen value is 7.75e-05 average fractional NGS count over selection days 2 and 3 (reads of this peptide / all reads for the bait, averaged over ….

Regarding chain 1 P11M, the screen value was 0.000374 average fractional NGS count over selection days 2 and 3 (reads of this peptide / all reads for the bait, averaged over ….

Take chain 1 P11T: the screen value was 0.00257 average fractional NGS count over selection days 2 and 3 (reads of this peptide / all reads for the bait, averaged over ….

Consider chain 1 P11I, for which the screen value was 0.00017 average fractional NGS count over selection days 2 and 3 (reads of this peptide / all reads for the bait, averaged over ….

On to chain 1 P11V, for which the screen value was 0.000274 average fractional NGS count over selection days 2 and 3 (reads of this peptide / all reads for the bait, averaged over ….

With chain 1 P11H, the screen value was 0.000426 average fractional NGS count over selection days 2 and 3 (reads of this peptide / all reads for the bait, averaged over ….

With chain 1 P11Q, the screen value is 0.000805 average fractional NGS count over selection days 2 and 3 (reads of this peptide / all reads for the bait, averaged over ….

In the case of chain 1 P11N, the screen value is 9.7e-05 average fractional NGS count over selection days 2 and 3 (reads of this peptide / all reads for the bait, averaged over ….

Regarding chain 1 P11S, the screen value is 4.62e-05 average fractional NGS count over selection days 2 and 3 (reads of this peptide / all reads for the bait, averaged over ….

With chain 1 P11W, the screen value was 0.000174 average fractional NGS count over selection days 2 and 3 (reads of this peptide / all reads for the bait, averaged over ….

Regarding chain 1 P11L, the screen value was 0.000447 average fractional NGS count over selection days 2 and 3 (reads of this peptide / all reads for the bait, averaged over ….

For chain 1 P11A, the screen value is 0.000414 average fractional NGS count over selection days 2 and 3 (reads of this peptide / all reads for the bait, averaged over ….

Consider chain 1 P11F, for which the screen value was 0.00176 average fractional NGS count over selection days 2 and 3 (reads of this peptide / all reads for the bait, averaged over ….

Consider chain 1 R13N, for which the screen value is 0.000641 average fractional NGS count over selection days 2 and 3 (reads of this peptide / all reads for the bait, averaged over ….

chain 1 R13M: the screen value is 0.000309 average fractional NGS count over selection days 2 and 3 (reads of this peptide / all reads for the bait, averaged over ….

Turning to chain 1 R13A, the screen value was 0.00128 average fractional NGS count over selection days 2 and 3 (reads of this peptide / all reads for the bait, averaged over ….

As to chain 1 R13Q, the screen value was 0.000164 average fractional NGS count over selection days 2 and 3 (reads of this peptide / all reads for the bait, averaged over ….

Regarding chain 1 R13E, the screen value was 0.000127 average fractional NGS count over selection days 2 and 3 (reads of this peptide / all reads for the bait, averaged over ….

chain 1 R13H: the screen value was 6.28e-05 average fractional NGS count over selection days 2 and 3 (reads of this peptide / all reads for the bait, averaged over ….

For the variant chain 1 R13Y, the screen value is 0.000779 average fractional NGS count over selection days 2 and 3 (reads of this peptide / all reads for the bait, averaged over ….

Consider chain 1 R13I, for which the screen value was 0.000728 average fractional NGS count over selection days 2 and 3 (reads of this peptide / all reads for the bait, averaged over ….

As for chain 1 R13V, the screen value was 0.000492 average fractional NGS count over selection days 2 and 3 (reads of this peptide / all reads for the bait, averaged over ….

Consider chain 1 R13G, for which the screen value is 3.78e-05 average fractional NGS count over selection days 2 and 3 (reads of this peptide / all reads for the bait, averaged over ….

As to chain 1 R13F, the screen value was 0.000441 average fractional NGS count over selection days 2 and 3 (reads of this peptide / all reads for the bait, averaged over ….

Consider chain 1 R13W, for which the screen value is 0.00314 average fractional NGS count over selection days 2 and 3 (reads of this peptide / all reads for the bait, averaged over ….

Take chain 1 P9N: the screen value is 0.000239 average fractional NGS count over selection days 2 and 3 (reads of this peptide / all reads for the bait, averaged over ….

Consider chain 1 P9Q, for which the screen value was 0.000144 average fractional NGS count over selection days 2 and 3 (reads of this peptide / all reads for the bait, averaged over ….

chain 1 P9R: the screen value was 8.13e-05 average fractional NGS count over selection days 2 and 3 (reads of this peptide / all reads for the bait, averaged over ….

For chain 1 P9V, the screen value was 0.000276 average fractional NGS count over selection days 2 and 3 (reads of this peptide / all reads for the bait, averaged over ….

Take chain 1 P9S: the screen value is 0.000162 average fractional NGS count over selection days 2 and 3 (reads of this peptide / all reads for the bait, averaged over ….

chain 1 P9T: the screen value is 0.000558 average fractional NGS count over selection days 2 and 3 (reads of this peptide / all reads for the bait, averaged over ….

Regarding chain 1 P9A, the screen value was 0.000623 average fractional NGS count over selection days 2 and 3 (reads of this peptide / all reads for the bait, averaged over ….

Regarding chain 1 P9L, the screen value is 0.000514 average fractional NGS count over selection days 2 and 3 (reads of this peptide / all reads for the bait, averaged over ….

As to chain 1 D12P, the screen value is 0.00103 average fractional NGS count over selection days 2 and 3 (reads of this peptide / all reads for the bait, averaged over ….

Take chain 1 D12I: the screen value was 0.00442 average fractional NGS count over selection days 2 and 3 (reads of this peptide / all reads for the bait, averaged over ….

As to chain 1 D12H, the screen value is 0.00265 average fractional NGS count over selection days 2 and 3 (reads of this peptide / all reads for the bait, averaged over ….

As to chain 1 D12L, the screen value is 0.00406 average fractional NGS count over selection days 2 and 3 (reads of this peptide / all reads for the bait, averaged over ….
